Source: the supplement of paper PMC9170038

Assays:
[1] = test system: K4 kissing-loop RNA reporter; test: apparent KD of K4 kissing-loop reporter; higher = weaker reporter binding; details: Eterna round: R107;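 further: bound reporter read as fluorescence of individual clusters on recovered sequencing chips by microscopy, with normalized cluster intensities fitted with a binding model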
Experimental: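 RNA-MaP round R107: designed RNA switches with theophylline, tryptophan, arginine or FMN aptamers are transcribed on-chip within common flanks. They are titrated with a labelled K4 kissing-loop RNA reporter in RNA-MaP buffer (100 mM Tris pH 7.5, 80 mM KCl, 4 mM MgCl2), without ligand or with the indicated ligand. Median apparent KD per design.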

MS2 coat protein = test: apparent KD of MS2 coat protein; designed switch direction (-1 OFF switch, 1 ON switch): -1; higher = weaker reporter binding
How it was run: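 For each design, the apparent KD is the median over clusters of curves fitted to normalised cluster fluorescence. Clusters held RNA switches with common flanks, transcribed on Illumina chips by stalled E. coli RNA polymerase. These were titrated with SNAP-549-labelled MS2 coat protein, doubling from 0.7 or 1.5 nM to 3 µM, without input, with 200 uM small-molecule ligand, or with an oligonucleotide input.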

[2] = input ligand: theophylline 20 uM
[3] = input ligand: tryptophan 2.4 mM
[4] = input ligand: microRNA oligo, concentration not stated
[5] = Eterna round: R95, input ligand: microRNA oligo, concentration not stated
[6] = Eterna round: R95, input ligand: FMN 200 uM
[7] = Eterna round: R95, input ligand: none

Sequence | apparent KD of K4 kissing-loop reporter ([1]; input ligand: FMN 200 uM) [nM] | apparent KD of K4 kissing-loop reporter ([1]; input ligand: arginine 13.2 mM) [nM] | apparent KD of K4 kissing-loop reporter ([1]; input ligand: none) [nM] | apparent KD of K4 kissing-loop reporter [1, 2] [nM] | apparent KD of K4 kissing-loop reporter [1, 3] [nM] | apparent KD of MS2 coat protein (MS2 coat protein; input ligand: FMN 200 uM) [nM] | apparent KD of MS2 coat protein (MS2 coat protein; input ligand: none) [nM] | further results
AACUGGGUUCGUGAUACCAGCUCACACAUGAGUGAUGUUCAUGUAGUGGGCAAAAUGUGGAGCCCUUGGCAGCACUGUGACCACG [XTheo-B2] | 81.1 | 69 | 77 | 73.3 | 78.5 | – | – | –
AACUGUCAAGGACAACAUUACUGAGGUGAUACCAGCAUCGAAAGAUGCCCUUGGCAGCACUGACUUGCAGUGAUGUUGCAAGUAA [BrourdMod 8 - Jieux - Exclusion - Theophylline A] | 208 | 162 | 199 | 215 | 189 | – | – | –
AACUGUCGAGGACAACAUUACUGAGGUGAUACCAGCAUCGAAAGAUGCCCUUGGCAGCACCAACUUGCAGUGAUGUUGCAAGUAA [BrourdMod 9 - Jieux - Exclusion - Theophylline A] | 356 | 324 | 343 | 473 | 314 | – | – | –
AAGCAGUCACGCGAAGCCAUCGAAGAUGGUCGAGGACCGGUACGGCCGCCACUCGGAGUGAUGUUCCGAAGACUGCAAAAUAAAA | 326 | 270 | 333 | 314 | 341 | – | – | –
AAGCAGUCACUCGAAACCAUCGAAGAUGGUCGAGGACCGGUACGGCCGCCACUCGGAGUGAUGUUCCGAAGACUGCAAAAUAAAA [#SwitchBubble 10] | 313 | 334 | 286 | 277 | 751 | – | – | –
AAGCAGUCACUCGAAUCCAUCGAAGAUGGACGAGGACCGGUACGGCCGCCACUCGGAGUGAUGUUCCGAAGACUGCAAAAUAAAA | 306 | 246 | 342 | 345 | 482 | – | – | –
AAGCAGUCACUCUAAGCCAUCGAAGAUGGUCGAGGACCGGUACGGCCGCCACUCGGAGUGAUGUUCCGAAGACUGCAAAAUAAAA | 410 | 393 | 468 | 459 | 249 | – | – | –
AAGCAGUCAGAGAGUGAUGUUCUCAAAUAACGAGGACCGGUACGGCCGCCACUCGAAGACUGCAAGUCCUACGAAAAGUAGGACA [Omei inspired 9] | 78.7 | 59.5 | 58.3 | 136 | 74.4 | – | – | –
UUUUGGCAGGCUAUUAUUAACAUGAGGAUCACCCAUGUGCAUCCAAAAUUACUUUUAGAUCUUGCUGGUCUUAUAUA [JR_STOV1_Sub085] (Eterna round: R97, puzzle: Sensor, turn-off variant 1) | – | – | – | – | – | 284 | 330 | –
UUUUUAAAUGAAGGAUAUACUUAACAUGAGGAUCACCCAUGUGGUGUUGUGAGUGAGUGAGUUUAGUAGAAGGUCAAUUAUUUU [JMF's solution 20] (Eterna round: R96, puzzle: Exclusion NG 2) | – | – | – | – | – | 1020 | 288 | apparent KD of MS2 coat protein (MS2 coat protein; [4]): 287 nM
UUUUUACAUGAGGAUCACCCAUGUCAGGAUAUGAUUAUAUUUUAUUAUUUUAUUUUUUUCAGAAGGGACUAUUA [My solution] (puzzle: Exclusion 1) | – | – | – | – | – | – | – | apparent KD of MS2 coat protein (MS2 coat protein; [5]): 80.6 nM
UUUUUAGAUGAAGGAUAUACUUAACAUGAGGAUCACCCAUGUGGUGUUGUGAGUGAGUGAGUUUAGUAGAAGGUCAAUUCUUUU [JMF's solution 87] (Eterna round: R96, puzzle: Exclusion NG 2) | – | – | – | – | – | 566 | 346 | apparent KD of MS2 coat protein (MS2 coat protein; [4]): 311 nM
UUUUUAUAUGAAGGAUAUACUUAACAUGAGGAUCACCCAUGUGGUGUUGUGAGUGAGUGAGUUUAGUAGAAGGUCAAGUAUUUG [JMF's solution 42] (Eterna round: R96, puzzle: Exclusion NG 2) | – | – | – | – | – | 689 | 342 | apparent KD of MS2 coat protein (MS2 coat protein; [4]): 204 nM
UUUUUAUAUGAAGGAUAUACUUAACAUGAGGAUCACCCAUGUGGUGUUGUGAGUGAGUGAGUUUAGUAGAAGGUCAAGUAUUUU [JMF's solution 8] (Eterna round: R96, puzzle: Exclusion NG 2) | – | – | – | – | – | 431 | 431 | apparent KD of MS2 coat protein (MS2 coat protein; [4]): 265 nM
UUUUUAUAUGAAGGAUAUACUUAACAUGAGGAUCACCCAUGUGGUGUUGUGAGUGAGUGAGUUUAGUAGAAGGUCAAUGAUUUA [JMF's solution 62] (Eterna round: R96, puzzle: Exclusion NG 2) | – | – | – | – | – | 1210 | 354 | apparent KD of MS2 coat protein (MS2 coat protein; [4]): 414 nM
UUUUUAUAUGAAGGAUAUACUUAACAUGAGGAUCACCCAUGUGGUGUUGUGAGUGAGUGAGUUUAGUAGAAGGUCAAUUAUUUC [JMF's solution 17] (Eterna round: R96, puzzle: Exclusion NG 2) | – | – | – | – | – | 537 | 549 | apparent KD of MS2 coat protein (MS2 coat protein; [4]): 292 nM
UUUUUCAGGCCAGAUCCUCACAUGAGGAUCACCCAUGUGCUCGUCUGUUUUCGCUCUGUCUUUUUUUUGGUGGUGCU [Level Boss var2-20] (puzzle: Sensor v3, turn-off variant 1) | – | – | – | – | – | – | – | apparent KD of MS2 coat protein (MS2 coat protein; [6]): 177 nM; apparent KD of MS2 coat protein (MS2 coat protein; [5]): 26.7 nM; apparent KD of MS2 coat protein (MS2 coat protein; [7]): 178 nM
UUUUUCGAACAAGCUUCGUACAUGAGGAUCACCCAUGUUUUUAGAUUUGAGUAGGUUUGUAUGGAAGUUCGUCUUAU [JR_SV3TOV1_Sub087] (puzzle: Sensor v3, turn-off variant 1) | – | – | – | – | – | – | – | apparent KD of MS2 coat protein (MS2 coat protein; [6]): 32.3 nM; apparent KD of MS2 coat protein (MS2 coat protein; [5]): 159 nM; apparent KD of MS2 coat protein (MS2 coat protein; [7]): 34.3 nM
UUUUUGUGAGGAUAUCAGUAGUAAAAAAAUAAAAUUACUACUGAGAAGGCACAUGAGGAUCACCCAUGUUCUUU [salish99_ex4_r3_012] (puzzle: Exclusion 4) | – | – | – | – | – | – | – | apparent KD of MS2 coat protein (MS2 coat protein; [5]): 18.4 nM
UUUUUUGUUUUUUUUACAAGCUUUUUGCUCGUCUUAUUAACAUGAGGAUCACCCAUGUCAAAGAGACCUCAUGUAUU [Sensor v3 - turn-off variant 2 - 1] (puzzle: Sensor v3, turn-off variant 2) | – | – | – | – | – | – | – | apparent KD of MS2 coat protein (MS2 coat protein; [6]): 91.2 nM; apparent KD of MS2 coat protein (MS2 coat protein; [5]): 15.7 nM; apparent KD of MS2 coat protein (MS2 coat protein; [7]): 207 nM
UUUUUUUUGCUGGUUUUUUACAUGAGGAUCACCCAUGUCCUCUGCUUGUCUUGUGUUGUGCUGGUUUCUGGUGCGGC [Revision to "-18.4 -40.2 kcal, A 8%"by Sellena] (Eterna round: R97, puzzle: Sensor, turn-off variant 1) | – | – | – | – | – | 428 | 1210 | –
